In patent publication US20150147274A1 (CANCER RESEARCH TECHNOLOGY, published 2015):
Where a chain is given by its changes, count along the chain named.

B1: 112_H2 (scFv)
scFv: QMQLVQSGAEVKKPGAPVKVSCKVSGYTFTDYYMHWVQQAPGKGLEWMGLVDPEDGETIYAEKFQGRVTITADTSTDTAYMELSSLRSEDTAVYYCATDATTPYWGMQVWGQGTLVTVSSLEGGGGSGGGGSGGGASDIQMTQSPSSLSASVGDRVTITCQASQDISNYLNWYQQKPGRAPKVLIYDASNLETGVPSRFSGSGSGTEFTLTISNLRPDDFATYYCQQGDSFPLTFGGGTKVEIK
notes: not shown: 6xHis/tri-FLAG tags
B2: 107_B2 (scFv)
scFv: B1 scFv with V109M
notes: as for B1
B3: 107_B11 (scFv)
scFv: B1 scFv with Q108A, V109M
notes: as for B1
B4: 108_D9 (scFv)
scFv: B1 scFv with G106Y, M107P, Q108Y
notes: as for B1
B5: 108_C8 (scFv)
scFv: B1 scFv with G106F, M107P, Q108Y, V109I
notes: as for B1
B6: 107_B12 (scFv)
scFv: B1 scFv with Q108T, V109A
notes: as for B1
B7: 108_E5 (scFv)
scFv: B1 scFv with Q108W, V109I
notes: as for B1
B8: 107_A6 (scFv)
scFv: B1 scFv with G106T, M107P, Q108F
notes: as for B1
B9: 107_A4 (scFv)
scFv: B1 scFv with G106F, M107P, Q108Y, V109H
notes: as for B1
B10: 108 E2 (scFv)
scFv: B1 scFv with G106T, M107P, Q108W
notes: as for B1
B11: 107_B4 (scFv)
scFv: B1 scFv with G106F, M107P, Q108N
notes: as for B1
B12: 108_G5 (scFv)
scFv: B1 scFv with G106W, V109S
notes: as for B1
B13: 107_C6 (scFv)
scFv: B1 scFv with Q108S
notes: as for B1
B14: 107_C5 (scFv)
scFv: B1 scFv with G106Y, M107P, Q108I
notes: as for B1
B15: 107_A11 (scFv)
scFv: B1 scFv with Q108A, V109W
notes: as for B1
B16: 108_D10 (scFv)
scFv: B1 scFv with Q108S, V109H
notes: as for B1
B17: 108_D2 (scFv)
scFv: B1 scFv with G106A, M107P, Q108W
notes: as for B1
B18: 107_B7 (scFv)
scFv: B1 scFv with G106C, Q108R, V109A
notes: as for B1
B19: 107_B10 (scFv)
scFv: B1 scFv with Q108R
notes: as for B1
B20: 108_C11 (scFv)
scFv: B1 scFv with G106F, M107P, Q108I, V109I
notes: as for B1
B21: 108_F6 (scFv)
scFv: B1 scFv with W105C, G106C, M107T, Q108I, V109E
notes: as for B1
B22: 108_C12 (scFv)
scFv: B1 scFv with Q108A, V109S
notes: as for B1
B23: 107_B3 (scFv)
scFv: B1 scFv with Q108K, V109M
notes: as for B1
B24: 108_E10 (scFv)
scFv: B1 scFv with G106F, M107P, Q108W
notes: as for B1
B25: 107_B8 (scFv)
scFv: B1 scFv with Q108A, V109E
notes: as for B1
B26: 107_A12 (scFv)
scFv: B1 scFv with G106W, Q108A, V109K
notes: as for B1
B27: 107_A9 (scFv)
scFv: B1 scFv with Q108M, V109T
notes: as for B1
B28: 108_D1 (scFv)
scFv: B1 scFv with G106T, M107P, Q108W, V109K
notes: as for B1
B29: 107_A3 (scFv)
scFv: B1 scFv with P103A, V109K
notes: as for B1
B30: 108_F2 (scFv)
scFv: B1 scFv with Q108S, V109S
notes: as for B1
B31: 107_C4 (scFv)
scFv: B1 scFv with G106S, M107P, Q108W, V109M
notes: as for B1
B32: 108_F11 (scFv)
scFv: B1 scFv with A100G, T101S, T102N, P103L, Y104S, G106Q, Q108D
notes: as for B1
B33: 108_E7 (scFv)
scFv: B1 scFv with Q108W, V109R
notes: as for B1
B34: 108_D7 (scFv)
scFv: B1 scFv with Q108D, V109M
notes: as for B1
B35: 107_B5 (scFv)
scFv: B1 scFv with V109I
notes: as for B1
B36: 108_D4 (scFv)
scFv: B1 scFv with Q108S, V109G
notes: as for B1
B37: 107_C2 (scFv)
scFv: B1 scFv with Q108V, V109K
notes: as for B1
B38: 107_B1 (scFv)
scFv: B1 scFv with T102H, P103I, G106N, Q108D, V109I
notes: as for B1
B39: 108_D11 (scFv)
scFv: B1 scFv with M107A, Q108A, V109A
notes: as for B1
B40: 108_E8 (scFv)
scFv: B1 scFv with G106W, V109K
notes: as for B1
B41: 107_C1 (scFv)
scFv: B1 scFv with Q108S, V109M
notes: as for B1
B42: 108_G1 (scFv)
scFv: B1 scFv with G106F, M107P, Q108R, V109M
notes: as for B1
B43: 107_B6 (scFv)
scFv: B1 scFv with V109K
notes: as for B1
B44: 108_D12 (scFv)
scFv: B1 scFv with G106T, M107P, Q108Y
notes: as for B1
B45: 108_G6 (scFv)
scFv: B1 scFv with G106F, M107P, Q108V, V109W
notes: as for B1
B46: 108_D5 (scFv)
scFv: B1 scFv with G106S, M107P, Q108H, V109T
notes: as for B1
B47: 107_A5 (scFv)
scFv: B1 scFv with Q108S, V109K
notes: as for B1
B48: 108_E11 (scFv)
scFv: B1 scFv with W105C, G106S, M107R, Q108T, V109S
notes: as for B1
B49: 108_D3 (scFv)
scFv: B1 scFv with G106F, M107P, Q108Y
notes: as for B1
B50: 107_A2 (scFv)
scFv: B1 scFv with V109S
notes: as for B1
B51: 109_G8 (scFv)
scFv: B1 scFv with Q108A, V109T
notes: as for B1
B52: 108_E1 (scFv)
scFv: B1 scFv with G106F, M107P, Q108L
notes: as for B1
B53: 108_E4 (scFv)
scFv: B1 scFv with Q108I, V109W
notes: as for B1
B54: 107_A10 (scFv)
scFv: B1 scFv with V109E
notes: as for B1
B55: 109 H2 (scFv)
scFv: B1 scFv with Q108W, V109E
notes: as for B1
B56: 108_E12 (scFv)
scFv: B1 scFv with G106L, M107A, Q108A, V109E
notes: as for B1
B57: 108_F3 (scFv)
scFv: B1 scFv with Q108A, V109K
notes: as for B1
B58: 108_G3 (scFv)
scFv: B1 scFv with G106A, M107P, Q108W, V109R
notes: as for B1

molecular target: T1, MET928 (cMET protein derived from construct 25-928) (human, UniProt P08581 25-928); assay: ELISA, soluble scFv
T1 construct: MET ectodomain, residues 1-24 are the leader; produced in Lec 8 cells; background text says the ectodomain is furin-cleaved into alpha (25-307) and beta chains; biotinylated form used in selections; also called MET928 extracellular domain; Met extracellular domain
T1 sequence (P08581 25-928): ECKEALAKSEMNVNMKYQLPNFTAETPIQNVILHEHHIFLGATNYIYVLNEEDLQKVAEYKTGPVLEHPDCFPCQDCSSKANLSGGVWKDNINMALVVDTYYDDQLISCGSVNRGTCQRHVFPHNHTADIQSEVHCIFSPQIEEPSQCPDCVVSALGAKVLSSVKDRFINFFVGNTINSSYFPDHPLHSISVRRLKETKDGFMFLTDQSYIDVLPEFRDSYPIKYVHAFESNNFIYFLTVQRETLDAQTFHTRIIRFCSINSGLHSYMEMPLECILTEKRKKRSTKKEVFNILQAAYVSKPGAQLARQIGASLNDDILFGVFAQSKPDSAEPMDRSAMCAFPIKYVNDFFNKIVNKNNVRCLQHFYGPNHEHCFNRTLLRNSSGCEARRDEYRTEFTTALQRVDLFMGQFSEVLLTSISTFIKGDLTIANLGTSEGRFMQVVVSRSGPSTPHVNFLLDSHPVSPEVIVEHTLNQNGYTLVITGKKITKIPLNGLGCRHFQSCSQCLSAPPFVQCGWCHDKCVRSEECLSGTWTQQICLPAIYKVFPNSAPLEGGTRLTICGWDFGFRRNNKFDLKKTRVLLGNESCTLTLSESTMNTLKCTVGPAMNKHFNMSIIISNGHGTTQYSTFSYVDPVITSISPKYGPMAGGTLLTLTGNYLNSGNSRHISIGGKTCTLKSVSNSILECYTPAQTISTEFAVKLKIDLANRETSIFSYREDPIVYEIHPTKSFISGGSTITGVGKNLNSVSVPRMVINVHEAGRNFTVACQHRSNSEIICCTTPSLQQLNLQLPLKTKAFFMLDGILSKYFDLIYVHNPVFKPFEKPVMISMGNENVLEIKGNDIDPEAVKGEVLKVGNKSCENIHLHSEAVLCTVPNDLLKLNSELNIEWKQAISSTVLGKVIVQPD

binding result | Binder
binds | B1
binds | B2
binds | B3
binds | B4
binds | B5
binds | B6
binds | B7
binds | B8
binds | B9
binds | B10
binds | B11
binds | B12
binds | B13
binds | B14
binds | B15
binds | B16
binds | B17
binds | B18
binds | B19
binds | B20

binding result | Binder
binds | B21
binds | B22
binds | B23
binds | B24
binds | B25
binds | B26
binds | B27
binds | B28
binds | B29
binds | B30
binds | B31
binds | B32
binds | B33
binds | B34
binds | B35
binds | B36
binds | B37
binds | B38
binds | B39
binds | B40

binding result | Binder
binds | B41
binds | B42
binds | B43
binds | B44
binds | B45
binds | B46
binds | B47
binds | B48
binds | B49
binds | B50
binds | B51
binds | B52
binds | B53
binds | B54
binds | B55
binds | B56
binds | B57
binds | B58
